For data set [1], the system named is mouse 3T3-L1 preadipocytes. Briefly: 3T3-L1 preadipocyte differentiation (oil red O, qRT-PCR). In kind it is cell-based. To be noted: for adipogenesis and lipogenesis in 3T3-L1 cells (oil red O): added to culture medium, 6 days of differentiation. The procedure: FIG. 23 illustrates that arginine depletion by adding N-ABD094-rhArg (SEQ ID NO: 50) (rhArg), bovine arginase or native arginine deiminase (ADI) to the culture medium, or using arginine-free medium inhibited the differentiation of mouse 3T3-L1 preadipocytes into adipocytes. […] (*The culture medium contains 0.4 mM L-arginine and can be converted into 0.4 mM L-ornithine and 0.4 mM urea by arginase, or 0.4 mM L-citrulline by ADI.). Cells grown in culture medium without addition of arginine depleting agents or metabolic products of arginase/ADI served as the control. Lipids in cells were stained with oil red O at 6 days after exposure to specific differentiation-inducing factors added to the medium.
FIG. 24 illustrates that N-ABD094-rhArg (SEQ ID NO: 50) could suppress adipogenic and lipogenic genes in 3T3-L1 preadipocytes. Mouse 3T3-L1 preadipocytes were cultured for 6 days in medium supplemented with specific factors to induce differentiation into adipocytes (differentiated). Cells grown in medium without these factors remained undifferentiated. The medium was added with 2U/mL N-ABD094-rhArg (SEQ ID NO: 50) (rhArg). Cells grown in medium without the addition of N-ABD094-rhArg served as the control. The mRNA expression levels of several crucial (A) transcriptional regulators of adipogenesis, and (B) enzymes in lipogenic pathways were determined by real-time qRT-PCR, and expressed relative to the undifferentiated (control) group, which is set as 1. *P<0.05, one-way ANOVA followed by Fisher's LSD. Data are expressed as mean±SEM, n=3 for each group.
FIG. 25 illustrates the response of 3T3-L1 preadipocytes to various concentrations of arginine Mouse 3T3-L1 preadipocytes were cultured in arginine-free medium with or without addition of varying concentrations of L-arginine for 6 days. Cells cultured in normal arginine-containing medium supplemented with differentiation inducing factors served as the positive (+ve) control of differentiation, while cells cultured in normal arginine-containing medium without supplementation of differentiation inducing factors served as the negative (−Ve) control of differentiation. One group of cells was cultured in normal arginine-containing medium supplemented with differentiation inducing factors and treated with 5U/mL N-ABD094-rhArg (SEQ ID NO: 50) (rhArg) to inhibit differentiation. (A) Cells were stained for lipids with oil red O, and staining intensity was quantified by measuring optical density, which is expressed as the percentage against the +ve control group. (B) The mRNA levels of several crucial lipogenesis related genes are expressed relative to cells cultured in arginine-free medium, which is set as 1. Data are expressed as mean±SEM, n=3 for each group.
To test the effect of N-ABD094-rhArg (SEQ ID NO: 50) on fat cells, mouse 3T3-L1 preadipocytes were used, which are commonly employed as cell-based model for studying adipogenesis [Green and Meuth, 1974, Cell 3:127-133].

Data set [2] is described as follows: Arginase specific activity, DAMO colorimetric assay. The format is biochemical. As to conditions: 37° C., pH 7.4, purified preparation. The text has this: The arginase activity of the fusion proteins described herein can be substantially the same, lower, or higher than the activity of the arginase polypeptide from which it is derived. One unit of arginase activity is defined as the amount of fusion protein [e.g., BHA (SEQ ID NO; 75), BAH (SEQ ID NO: 76), N-ABD-rhArg (SEQ ID NO: 49), or N-ABD094-rhArg (SEQ ID NO: 50)] or arginase [e.g., BCA (SEQ ID NO: 70)] that catalyzes the production of 1 μmol of urea per min under standard assay conditions. The specific activity of the enzyme is expressed as activity units per mg of protein. Under standard diacetylmonoxime (DAMO) assay conditions (37° C., pH 7.4), the fusion proteins can have a specific activity that is about 5%, about 10%, about 15%, about 20%, about 25% about 30%, about 35% or about 40% lower or higher than the corresponding arginase polypeptide which it incorporates. In certain embodiments, fusion proteins can have a specific activity that is about 5% to about 40%, about 10% to about 40%, about 10% to about 35%, about 10% to about 30%, about 20% to about 30%, about 20% to about 35%, about 15% to about 30%, about 15% to about 25%, or about 10% to about 20% lower or higher than the corresponding arginase polypeptide which it incorporates.
One unit of enzyme activity is defined as the amount of enzyme (BCA, BHA or BAH) that catalyzes the production of 1 μmol urea per min under standard assay conditions. Specific activity of the enzyme is expressed as activity units per mg of protein.
Briefly, a serial dilution of 0.3 mL BCA solutions together with 0.15 mL water and 720 mM arginine substrate at pH 7.4 was pre-incubated separately at 37° C. for 10 min. The enzymatic reaction was carried out by adding 0.3 mL arginine substrate to the pre-incubated enzyme solutions. […]
The urea formed from the above reaction was quantified using the DAMO direct colorimetric method described by World Health Organization (WHO). […] The absorbance at 540 nm was measured. […]

A short description of data set [3]: DIO mice treated with PEGylated His-rhArg. In kind it is in vivo, C57BL/6J male mice. Here is the method: Production of PEGylated His-rhArg (SEQ ID NO: 101) is described in Example 30. C57BL/6J male mice with pre-existing diet-induced obesity (DIO) received i.p. injection of 300U PEGylated His-rhArg [SEQ ID NO: 101], or saline as vehicle control, at 7-day intervals for 5 weeks, while continuously being fed a HFD. […] Regular monitoring of plasma arginine concentrations confirmed that arginine remained at levels below the detection limit of the Biochrom 30 Amino Acid Analyzer (3 μM) throughout the study.

Data set [4] relates to 4T1 breast cancer allograft. Briefly: 4T1 breast cancer allograft study. The format is in vivo, female nude mice. To be noted: 500U once per week. The procedure:
In another 4T1 breast cancer allograft study, female nude mice (5-6 weeks of age) were used. They were kept in groups of five per cage and provided food and water ad libitum. Cells of 4T1 breast cancer ([…]) were injected subcultuaneously into the right flank of the mice. […] There were one control group (n=8) and three experimental groups, including 500U PEGylated His-rhArg (SEQ ID NO: 101) (n=8), 500U N-ABD-rhArg (SEQ ID NO: 49) (n=6) and 250U N-ABD-rhArg (SEQ ID NO: 49) (n=8). Mice in the control group were injected with 1×PBS weekly. For the 500U ABD-rhArg group and the 250U ABD-rhArg group, mice were injected with 500U and 250U ABD-rhArg once a week, respectively; one group was injected with 500U PEG-rhArg once per week. The mice were sacrificed after 24 days of inoculation (i.e. 14 days after starting of experiment) because of necrosis of tumor in PBS control group. After sacrificing, the mice were dissected. Tumors were collected from the mice and measured their weight. Lungs were also collected and washed with 1×PBS. The lungs were fixed in Bouin's solution overnight and washed with 1×PBS after fixation. Lung metastatic nodules were counted.

The test system of another data set is circulating arginine. As to conditions: i.p., cited from earlier work.

Where “and” joins values, the source holds several entries; their conditions need not be identical. Equal entries are not always repeated.

With `N=C(N)NCCC[C@H](N)C(=O)O` [L-arginine], in data set [1] (arginine-free medium supplemented with L-arginine, 6 days), the “threshold concentration for activation of Cebpa, Pparg and Scd1” value is 10 to 40 µM.

For the molecule `NCCC[C@H](N)C(=O)O` [L-ornithine], in data set [1], the “adipogenesis and lipogenesis in 3T3-L1 cells (oil red O)” value (from here on “adipogenesis and lipogenesis”) is on record as “could not inhibit”.

As for `NC(=O)NCCC[C@H](N)C(=O)O` [L-citrulline], the “adipogenesis and lipogenesis” value in data set [1] is on record as “could not inhibit”.

Consider `NC(N)=O` [urea], for which the “adipogenesis and lipogenesis” value in data set [1] is listed as “could not inhibit”.

B1: PEGylated His-rhArg (conjugate)
chain: MHHHHHHMSAKSRTIGIIGAPFSKGQPRGGVEEGPTVLRKAGLLEKLKEQECDVKDYGDLPFADIPNDSPFQIVKNPRSVGKASEQLAGKVAEVKKNGRISLVLGGDHSLAIGSISGHARVHPDLGVIWVDAHTDINTPLTTTSGNLHGQPVSFLLKELKGKIPDVPGFSWVTPCISAKDIVYIGLRDVDPGEHYILKTLGIKYFSMTEVDRLGIGKVMEETLSYLLGRKKRPIHLSFDVDGLDPSFTPATGTPVVGGLTYREGLYITEEIYKTGLLSGLDIMEVNPSLGKTPEEVTRTVNTAVAITLACFGLAREGNHKPIDYLNPPK
modifications: PEGylated; His-rhArg, Synthesized in Lab
For B1, in data set [2], the Specific activity was 245 U/mg. In addition, in data set [2] (listed as PEGylated His-rhArg batch 3), the Specific activity is 189 U/mg and 213 U/mg. Also, the bodyweight after treatment in data set [3] (300U i.p. at 7-day intervals for 5 weeks, HFD continued) came to 30 g. For the same molecule, the “weight of liver, kidney, pancreas and heart vs vehicle-treated DIO mice” value in data set [3] (300U weekly) is recorded as “significantly lower”. The “weight of fat pad at visceral and subcutaneous depots” value in data set [3] (300U weekly, end of study) is reported as “significantly reduced”. Further, the “plasma arginine concentrations throughout the study” value in data set [3] (300U weekly, Biochrom 30 detection limit) is less than 3 µM. Also, in data set [3] (two weeks after treatment), the “fasting blood glucose levels vs vehicle-treated DIO mice” value was “lower” and the “insulin sensitivity (ITT) vs vehicle-treated DIO mice” value is “significant increase”. In addition, in data set [4], the “growth of 4T1 solid tumor” value was “inhibited the growth of the aggressive 4T1 solid tumor significantly” and the “metastasis nodules from the lungs vs control group” value is on record as “very significantly reduced”.

B2: PEGylated rhArg (conjugate, UniProt P05089 1-322, looked up)
Arginase-1: MSAKSRTIGIIGAPFSKGQPRGGVEEGPTVLRKAGLLEKLKEQECDVKDYGDLPFADIPNDSPFQIVKNPRSVGKASEQLAGKVAEVKKNGRISLVLGGDHSLAIGSISGHARVHPDLGVIWVDAHTDINTPLTTTSGNLHGQPVSFLLKELKGKIPDVPGFSWVTPCISAKDIVYIGLRDVDPGEHYILKTLGIKYFSMTEVDRLGIGKVMEETLSYLLGRKKRPIHLSFDVDGLDPSFTPATGTPVVGGLTYREGLYITEEIYKTGLLSGLDIMEVNPSLGKTPEEVTRTVNTAVAITLACFGLAREGNHKPIDYLNPPK
modifications: PEGylated
As for B2, the “time circulating arginine below detection limit (3 μM)” value with circulating arginine (1,500 U per rat (6 U/g)) is given as 6 days.

B3: native rhArg: native recombinant human arginase (Tsui et al.) (protein, UniProt P05089 1-322, looked up)
Arginase-1: MSAKSRTIGIIGAPFSKGQPRGGVEEGPTVLRKAGLLEKLKEQECDVKDYGDLPFADIPNDSPFQIVKNPRSVGKASEQLAGKVAEVKKNGRISLVLGGDHSLAIGSISGHARVHPDLGVIWVDAHTDINTPLTTTSGNLHGQPVSFLLKELKGKIPDVPGFSWVTPCISAKDIVYIGLRDVDPGEHYILKTLGIKYFSMTEVDRLGIGKVMEETLSYLLGRKKRPIHLSFDVDGLDPSFTPATGTPVVGGLTYREGLYITEEIYKTGLLSGLDIMEVNPSLGKTPEEVTRTVNTAVAITLACFGLAREGNHKPIDYLNPPK
Take B3: in the data set on circulating arginine (7,500 U/rat), the “circulating arginine within 3 hour of injection” value is approximately 20 µM and the “time for arginine to return to basal level post-injection” value is approximately 2 days.

The record behind these values is patent US20200181597A1, “Composition and Application of Arginine-depleting Agents for Cancer, Obesity, Metabolic Disorders, and Related Complications and Comorbidities” (THE HONG KONG POLYTECHNIC UNIVERSITY, priority 2018, published 2020).
